Like-named read-outs stand apart in the source and are kept apart here.
Legend:
[1] = biological target: T1, human dimeric IL-23 (eBiosciences 34-8239) (human, UniProt P29460 23-328; Q9NPF7 20-189); test: cell-based or functional assay
T1 sequence (looked up) 1: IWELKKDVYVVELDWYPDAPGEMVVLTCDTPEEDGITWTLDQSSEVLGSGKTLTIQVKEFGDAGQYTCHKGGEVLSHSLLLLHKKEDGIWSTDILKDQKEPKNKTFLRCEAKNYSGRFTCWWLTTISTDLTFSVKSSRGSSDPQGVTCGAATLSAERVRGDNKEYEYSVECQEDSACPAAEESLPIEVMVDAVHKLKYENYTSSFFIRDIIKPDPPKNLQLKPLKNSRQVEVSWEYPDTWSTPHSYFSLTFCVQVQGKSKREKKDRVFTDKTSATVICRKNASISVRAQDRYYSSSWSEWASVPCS
T1 sequence (looked up) 2: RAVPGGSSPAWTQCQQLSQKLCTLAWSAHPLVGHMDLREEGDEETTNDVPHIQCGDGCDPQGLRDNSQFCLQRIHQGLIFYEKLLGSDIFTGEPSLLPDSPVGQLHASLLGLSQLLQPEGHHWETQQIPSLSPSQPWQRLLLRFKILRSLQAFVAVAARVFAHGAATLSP

[2] = biological target: T1, human dimeric IL-23 (eBiosciences …); test: cell-based or functional assay; remark: listed apart in the source
[3] = biological target: T2, primate IL-23 (p40:p19 fusion, 6×HIS) (primate); test: cell-based or functional assay
T2 chain: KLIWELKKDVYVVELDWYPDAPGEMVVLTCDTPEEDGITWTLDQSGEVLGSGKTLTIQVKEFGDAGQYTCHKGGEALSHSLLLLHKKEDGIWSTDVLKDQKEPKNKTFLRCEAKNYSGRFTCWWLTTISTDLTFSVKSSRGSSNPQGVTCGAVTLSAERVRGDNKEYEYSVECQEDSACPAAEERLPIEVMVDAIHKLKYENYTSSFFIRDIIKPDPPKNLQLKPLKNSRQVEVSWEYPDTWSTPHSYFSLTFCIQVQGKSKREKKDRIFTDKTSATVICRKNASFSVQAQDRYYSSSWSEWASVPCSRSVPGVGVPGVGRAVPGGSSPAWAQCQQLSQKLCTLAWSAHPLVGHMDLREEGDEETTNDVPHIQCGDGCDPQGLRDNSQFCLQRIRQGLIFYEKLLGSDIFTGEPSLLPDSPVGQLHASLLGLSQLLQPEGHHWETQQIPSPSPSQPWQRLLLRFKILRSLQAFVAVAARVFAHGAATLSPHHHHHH

IL-23 p40-p19-His = biological target: T3, IL-23 p40-p19-His (human); test: ELISA on IL-23 p40-p19-His
T3 construct: Single-chain fusion coated on the IL-23 ELISA plates; also called p40:p19-6×HIS
T3 chain: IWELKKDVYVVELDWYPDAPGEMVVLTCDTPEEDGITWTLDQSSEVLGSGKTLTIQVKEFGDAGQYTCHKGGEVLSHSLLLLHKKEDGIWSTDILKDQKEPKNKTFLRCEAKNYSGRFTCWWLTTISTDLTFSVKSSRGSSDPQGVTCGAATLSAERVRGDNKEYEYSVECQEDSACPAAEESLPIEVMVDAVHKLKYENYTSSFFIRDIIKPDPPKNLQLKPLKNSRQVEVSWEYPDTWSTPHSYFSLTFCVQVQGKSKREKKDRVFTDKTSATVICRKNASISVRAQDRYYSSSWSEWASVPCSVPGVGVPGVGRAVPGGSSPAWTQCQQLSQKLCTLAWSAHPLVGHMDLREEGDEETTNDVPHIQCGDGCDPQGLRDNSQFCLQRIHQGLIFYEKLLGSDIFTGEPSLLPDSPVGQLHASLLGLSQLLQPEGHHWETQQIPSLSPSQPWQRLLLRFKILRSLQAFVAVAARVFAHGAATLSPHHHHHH

human IL-12 [4] = biological target: T4, human IL-12 (human, UniProt P29459 23-219; P29460 23-328); test: cell-based or functional assay
T4 sequence (looked up) 1: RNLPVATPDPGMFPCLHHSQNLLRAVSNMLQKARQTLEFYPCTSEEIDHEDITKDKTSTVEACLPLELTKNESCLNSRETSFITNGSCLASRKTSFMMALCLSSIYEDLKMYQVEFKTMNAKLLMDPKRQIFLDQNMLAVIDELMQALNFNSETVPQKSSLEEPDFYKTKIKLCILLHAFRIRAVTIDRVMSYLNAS
T4 sequence (looked up) 2: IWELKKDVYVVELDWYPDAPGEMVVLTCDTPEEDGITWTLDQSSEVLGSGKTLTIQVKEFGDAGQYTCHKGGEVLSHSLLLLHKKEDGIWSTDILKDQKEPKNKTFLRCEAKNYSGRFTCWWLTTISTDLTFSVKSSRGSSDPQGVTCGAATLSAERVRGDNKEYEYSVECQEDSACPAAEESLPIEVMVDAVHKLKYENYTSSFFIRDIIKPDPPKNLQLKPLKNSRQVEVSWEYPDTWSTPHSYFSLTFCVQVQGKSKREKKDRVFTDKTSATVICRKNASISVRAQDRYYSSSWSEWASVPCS

[5] = biological target: T1, human dimeric IL-23 (eBiosciences …); test: cell-based or functional assay; remark: listed apart in the source
[6] = biological target: T1, human dimeric IL-23 (eBiosciences …); test: SPR (SensiQ Pioneer), mAb captured on protein G, human dimeric IL-23 as analyte (1-100 nM), 25 C, 1:1 model; the sentence names no analyte
Description: Equilibrium constants for rabbit human chimeric mAbs were determined by binding the mAb to the protein G coated chip followed by binding of each analyte (IL-6 or IL-23) to its respective mAb. In order to minimize mass transfer effects, the surface densities of the mAbs for each analyte were adjusted so that as analyte binding approached saturation its corresponding RU fell between 200 and 300. […] For each binding and dissociation cycle the chip surface was regenerated with 15 uL of 20 mM NaOH (5671-02, Mallinckrodt Baker, Philliphsburg, N.J.). The assay temperature was maintained at 25° C. with an analyte flow rate of 50 μL/min and included a 2 minute association phase and 10-30 minute dissociation phase. The on/off rates (kₐ/kd) and dissociation constants (KD) were determined using the format described above along with pseudo-first-order 1:1 interaction model software (Qdat, ICx Nomadics, Stillwater, Okla.).

human IL-6 = human IL-6 (human, UniProt P05231 30-212); test: cell-based or functional assay
monkey IL-12 (macaque) [7] = biological target: T5, monkey IL-12 (macaque) (macaque, UniProt P48091 23-219; P48095 23-328); test: cell-based or functional assay
T5 sequence (looked up) 1: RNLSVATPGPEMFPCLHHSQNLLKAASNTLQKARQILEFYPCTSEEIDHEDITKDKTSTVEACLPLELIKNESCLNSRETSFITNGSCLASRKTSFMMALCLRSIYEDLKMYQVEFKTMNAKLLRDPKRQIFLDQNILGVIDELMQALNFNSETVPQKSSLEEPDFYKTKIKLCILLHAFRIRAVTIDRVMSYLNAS
T5 sequence (looked up) 2: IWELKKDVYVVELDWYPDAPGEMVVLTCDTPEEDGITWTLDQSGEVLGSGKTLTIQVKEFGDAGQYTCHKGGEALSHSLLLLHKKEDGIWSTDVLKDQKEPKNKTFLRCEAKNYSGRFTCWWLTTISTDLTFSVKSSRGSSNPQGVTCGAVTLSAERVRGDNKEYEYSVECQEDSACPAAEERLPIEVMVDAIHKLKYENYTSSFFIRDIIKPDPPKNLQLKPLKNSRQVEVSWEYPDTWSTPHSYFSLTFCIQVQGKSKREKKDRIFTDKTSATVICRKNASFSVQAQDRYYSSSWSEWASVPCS

monkey IL-12 (macaque) [8] = biological target: T5, monkey IL-12 (macaque); test: cell-based or functional assay; remark: listed apart in the source
human IL-12 [9] = biological target: T4, human IL-12; test: IL-12 binding assay of the selection not described
[10] = biological target: T1, human dimeric IL-23 (eBiosciences …); test: cell-based or functional assay; remark: listed apart in the source
[11] = biological target: T1, human dimeric IL-23 (eBiosciences …); test: cell-based or functional assay; remark: listed apart in the source
[12] = biological target: T1, human dimeric IL-23 (eBiosciences …); test: SPR; format for the anti-IL-23 scFv alone not described
[13] = biological target: T1, human dimeric IL-23 (eBiosciences …); test: cell-based or functional assay; remark: listed apart in the source

Binder | IC50 (read off the curve) (IL-17 from mouse splenocytes, OD450) [3] [ng/mL] | binding result (IL-23 p40-p19-His) | EC50: concentration necessary to inhibit bioactivity of 50 pg/ml of IL-6 [5] [ng/mL] | IC50 (read off the curve) (monkey IL-12 (macaque) [7]) [ng/mL] | IC50 (read off the curve) (interferon-gamma from NK92 cells, OD450) (monkey IL-12 (macaque) [8]) [ng/mL] | binding result (human IL-12 [9]) | also measured
31A12c-PEG20 (scFv, C-terminal azidohomoalanine (Aha) conjugated to 20 kDa linear PEG bis-alkyne) scFv: DIQLTQSPSFLSASVGDRVTITCQASEDIESYLAWYQQKPGKAPKLLIYSASTLTSGVPSRFSGSGSGTEFTLTISSLQPEDFATYYCLGADDTTTVFGGGTKVEIKGGGGSGGGGSGGGGSGGGGSEVQLVESGGGLVQPGGSLRLSCTASGFSLSSYWLTWVRQAPGKGLEWVGTIATSSTYYASWAKGRFTISRDNSKNTLYLQLNSLRAEDTAVYYCARGLTTDYDLDLWGQGTLVTVSS |  |  |  |  |  |  | EC50 (pg/mL) of the folded scFv-PEG [1]: 1040 pg/mL
22H8 chimeric mAb (antibody, V domains shown, Rabbit/human chimeric IgG (human IgG1, kappa); HEK293; also called mAb 22H8) VH: QSLEESGGRLVTPGTPLTLTCTVSGFSLSTYTMNWVRQSPGKGLEWIGAISYDGGTAYANWAKGRFTISKTSTTVDLQIASPTTEDTATYFCARGFYVYAYIGDAFDPWGPGTLVTVSS VL: AVLTQTPSPVSATVGGTVTIKCQSSQTVYKNNLLSWYQQKPGQPPKLLIYLASTLASGVPSRFSGSGSGTQFTLTISGVQCDDAATYYCLGGYDDDADTAFGGGTEVVVVR | ~4 | binds | 0.603 |  |  |  | IC50 (read off the curve) (IL-17 from mouse splenocytes, OD450) [2]: ~0.8 ng/mL; IC50 (read off the curve) (interferon-gamma from NK92 cells, OD450) (human IL-12 [4]): ~0.8 ng/mL; Kd [6]: 0.221 nM; koff [6]: 8.94e-05 s⁻¹; kon [6]: 403000 M⁻¹ s⁻¹
9C8 Hum scFv v3-2 (scFv) scFv: DIQMTQSPSSVSASVGDRVTITCQASQSISNELSWYQQKPGKAPKLLIYRTSTLASGVPSRFSGSGSGTDFTLTISSLQPEDFATYYCQQGYNSNDVDNVFGGGTKVEIKGGGGSGGGGSGGGGSGGGGSEVQLVESGGGLVQPGGSLRLSCAASGIDLSSYDMSWVRQAPGKGLEWVGYIYTDSSTYYANWAKGRFTISRDNSKNTLYLQMNSLRAEDTAVYYCARGSTDYAFDTRLDLWGQGTLVTVSSGPPPPPHHHHHH |  |  |  |  |  |  | IC50 (read off the curve) (B9 proliferation, OD570-600) (human IL-6): ~0.7 ng/mL
45G5 chimeric mAb (antibody, V domains shown, Rabbit/human chimeric IgG (human IgG1, kappa); HEK293; also called mAb 45G5) VH: QSVEESGGRLVTPGTPLTLTCTVSGFSLSVYPINWVRQAPGKGLGWIGIINDVDDTAYSAWAKGRFTISKASSTTVDLKITSPTTEDTATYFCARGYLSYAYAGDAFDPWGPGTLVTVSS VL: AVLTQTPSPVSAAVGGTVTIKCQSSQSIYNNNLLSWYQQKPGQPPRLLIHFASTLASGVPDRFSGSGSGTQFTLTISGVQCDDAATYYCLGGYDDDADTAFGGGTEVVVV |  | binds | 0.385 | ~4 | ~4 | binds | IC50 (read off the curve) (IL-17 from mouse splenocytes, OD450) [10]: ~2 ng/mL
1H1 chimeric mAb (antibody, V domains shown, Rabbit/human chimeric IgG (human IgG1, kappa); HEK293; also called mAb 1H1) VH: QELKESGGRLVTPGGSLTLSCTASGLTLGSYSMTWVRQAPGKGLEWMGVIGVGGTLNYASWAQGRFTISKPSSTTVDLKMTSLTTEDTATYFCARGTYSGDSIWGPGTLVTVSS VL: DVVMTQTPSSTSAAVGGTVTIKCQASQSISSWLAWYQQKPGQPPKPLIVRASILTSGVPSRFKGSRSGTEYTLTISGVQREDAATYYCLGGDGHVSNFGGGTELEILR | ~1 | binds | 0.603 |  |  | binds | IC50 (read off the curve) (IL-17 from mouse splenocytes, OD450) [11]: ~1 ng/mL
31A12 humanized scFv (mammalian expressed) (scFv, also called Anti IL-23 31A12 scFv; 31A12 scFv) scFv: DIQLTQSPSFLSASVGDRVTITCQASEDIESYLAWYQQKPGKAPKLLIYSASTLTSGVPSRFSGSGSGTEFTLTISSLQPEDFATYYCLGADDTTTVFGGGTKVEIKGGGGSGGGGSGGGGSGGGGSEVQLVESGGGLVQPGGSLRLSCTASGFSLSSYWMTWVRQAPGKGLEWVGTIATSSTYYASWAKGRFTISRDNSKNTLYLQMNSLRAEDTAVYYCARGLTTDYDLDLWGQGTLVTVSSGPPPPHHHHHH |  |  |  | ~10 | ~10 |  | Kd [12]: 0.092 nM; koff [12]: 7.11e-05 s⁻¹; kon [12]: 773000 M⁻¹ s⁻¹; EC50, inhibition of IL-23 induced IL-17 secretion by mouse spleen cells [13]: 1.37 ng/mL
